According to US20160058881A1, “PRODRUGS WITH PROLONGED ACTION” (INDIANA UNIVERSITY RESEARCH AND TECHNOLOGY CORPORATION, priority 2013, published 2016):
Positions of bridges follow the written chain, without caps; N, C: chain ends. Non-standard residues stand in square brackets, D forms with d. Groups on a side chain read outwards from the residue. No end group written: not given here. *: point of attachment. Docosanoyl = CCCCCCCCCCCCCCCCCCCCCC(=O)*; Phe(4-NH2) = Nc1ccc(C[C@H](N)C(=O)O)cc1; PhLac = O=C(O)[C@@H](O)Cc1ccccc1; Aib = CC(C)(N)C(=O)O; C20 = C20 acyl group; Sar = CNCC(=O)O

B1: Peptide D (parent peptide, lacking acylation and lacking a dipeptide prodrug moiety) (peptide)
peptide: F[Aib]EGTFTSD[Phe(4-NH2)]SIYLDKQAA[Aib]EFVNWLLAGGPSSGAPPPS-NH2
modifications: N-terminus assumed
SMILES: CC[C@H](C)[C@H](NC(=O)[C@H](CO)NC(=O)[C@H](Cc1ccc(N)cc1)NC(=O)[C@H](CC(=O)O)NC(=O)[C@H](CO)NC(=O)[C@@H](NC(=O)[C@H](Cc1ccccc1)NC(=O)[C@@H](NC(=O)CNC(=O)[C@H](CCC(=O)O)NC(=O)C(C)(C)NC(=O)[C@@H](N)Cc1ccccc1)[C@@H](C)O)[C@@H](C)O)C(=O)N[C@@H](Cc1ccc(O)cc1)C(=O)N[C@@H](CC(C)C)C(=O)N[C@@H](CC(=O)O)C(=O)N[C@@H](CCCCN)C(=O)N[C@@H](CCC(N)=O)C(=O)N[C@@H](C)C(=O)N[C@@H](C)C(=O)NC(C)(C)C(=O)N[C@@H](CCC(=O)O)C(=O)N[C@@H](Cc1ccccc1)C(=O)N[C@H](C(=O)N[C@@H](CC(N)=O)C(=O)N[C@@H](Cc1c[nH]c2ccccc12)C(=O)N[C@@H](CC(C)C)C(=O)N[C@@H](CC(C)C)C(=O)N[C@@H](C)C(=O)NCC(=O)NCC(=O)N1CCC[C@H]1C(=O)N[C@@H](CO)C(=O)N[C@@H](CO)C(=O)NCC(=O)N[C@@H](C)C(=O)N1CCC[C@H]1C(=O)N1CCC[C@H]1C(=O)N1CCC[C@H]1C(=O)N[C@@H](CO)C(N)=O)C(C)C
B2: [E9, E16K20(lactam), D28]G(4~29) (Table 2 peptide 5) (peptide)
peptide: GTFTSEYSKYLDERRAKDFVQWLMDT-NH2
modifications: lactam 13-17; N-terminus assumed
SMILES: CSCC[C@H](NC(=O)[C@H](CC(C)C)NC(=O)[C@H](Cc1c[nH]c2ccccc12)NC(=O)[C@H](CCC(N)=O)NC(=O)[C@@H](NC(=O)[C@H](Cc1ccccc1)NC(=O)[C@H](CC(=O)O)NC(=O)[C@@H]1CCCCNC(=O)CC[C@H](NC(=O)[C@H](CC(=O)O)NC(=O)[C@H](CC(C)C)NC(=O)[C@H](Cc2ccc(O)cc2)NC(=O)[C@H](CCCCN)NC(=O)[C@H](CO)NC(=O)[C@H](Cc2ccc(O)cc2)NC(=O)[C@H](CCC(=O)O)NC(=O)[C@H](CO)NC(=O)[C@@H](NC(=O)[C@H](Cc2ccccc2)NC(=O)[C@@H](NC(=O)CN)[C@@H](C)O)[C@@H](C)O)C(=O)N[C@@H](CCCNC(=N)N)C(=O)N[C@@H](CCCNC(=N)N)C(=O)N[C@@H](C)C(=O)N1)C(C)C)C(=O)N[C@@H](CC(=O)O)C(=O)N[C@H](C(N)=O)[C@@H](C)O
B3: Peptide D with a C22-acylated lysine attached directly to the 4-amino group of phenylalanine at position 10 (peptide)
peptide: F[Aib]EGTFTSD[Phe(4-NH2)]([Lys-C22 acyl])SIYLDKQAA[Aib]EFVNWLLAGGPSSGAPPPS-NH2
modifications: also: acylated amino group of the Lys not given here
B4: [PLA6, D9, E16, E24K28(lactam)]G(6~29) (Table 2 peptide 4) (peptide)
peptide: [PhLac]TSDYSKYLDERRAQDFVEWLMKT
modifications: lactam 19-23
B5: ANK2 (Bayer peptide) (Table 2 peptide 9) (peptide)
peptide: HSQGTFTSDYARYLDARRAREFIKWLVRGRG
B6: Peptide D with a C20-acylated lysine attached directly to the 4-amino group of phenylalanine at position 10 (peptide)
peptide: F[Aib]EGTFTSD[Phe(4-NH2)]([Lys-C20 acyl])SIYLDKQAA[Aib]EFVNWLLAGGPSSGAPPPS-NH2
modifications: also: acylated amino group of the Lys not given here
B7: [PLA6, D9, E16, K20E24(Lactam), D28]G(6-29) (Table 2 peptide 3) (peptide)
peptide: [PhLac]TSDYSKYLDERRAKDFVEWLMDT
modifications: lactam 15-19
B8: [A2E3, E16K20(Lactam),D28]G(2~29) (Table 2 peptide 7) (peptide)
peptide: AEGTFTSEYSKYLDERRAKDFVQWLMDT
modifications: lactam 15-19
B9: Peptide D with C22 acylated (d)Lysine-sarcosine dipeptide prodrug moiety at position 10 (peptide)
peptide: F[Aib]EGTFTSD[Phe(4-NH2)]([Sar-dK-C22 acyl])SIYLDKQAA[Aib]EFVNWLLAGGPSSGAPPPS-NH2
B10: Peptide D with C20 acylated (d)Lysine-sarcosine dipeptide prodrug moiety at position 10 (peptide)
peptide: F[Aib]EGTFTSD[Phe(4-NH2)]([Sar-dK-C20 acyl])SIYLDKQAA[Aib]EFVNWLLAGGPSSGAPPPS-NH2

Legend:
[1] = target: GLP-1 receptor (Homo sapiens, UniProt P43220); experiment: GLP-receptor luciferase bioassay of samples incubated in 20% human plasma (restored activity); type: cell-based; settings: 37° C., 0 to 5 d
Experimental: To explore the possible formation of DKP and simultaneous regeneration of the parent drug, the above-mentioned peptides were incubated in 20% human plasma at 37° C. for approximately 5 days. Samples were collected at different time points (0, 1, 2, and 5 days).

[2] = target: T1, GLP-1 receptor (UniProt P43220 24-463, limits assumed); experiment: cell-based or functional assay
[3] = target: T1, GLP-1 receptor; experiment: cell-based or functional assay; remark: listed apart in the source
[4] = target: glucagon receptor (UniProt P47871 26-477, limits assumed); experiment: cell-based or functional assay
glucagon receptor, sequence (P47871 26-477 limits assumed): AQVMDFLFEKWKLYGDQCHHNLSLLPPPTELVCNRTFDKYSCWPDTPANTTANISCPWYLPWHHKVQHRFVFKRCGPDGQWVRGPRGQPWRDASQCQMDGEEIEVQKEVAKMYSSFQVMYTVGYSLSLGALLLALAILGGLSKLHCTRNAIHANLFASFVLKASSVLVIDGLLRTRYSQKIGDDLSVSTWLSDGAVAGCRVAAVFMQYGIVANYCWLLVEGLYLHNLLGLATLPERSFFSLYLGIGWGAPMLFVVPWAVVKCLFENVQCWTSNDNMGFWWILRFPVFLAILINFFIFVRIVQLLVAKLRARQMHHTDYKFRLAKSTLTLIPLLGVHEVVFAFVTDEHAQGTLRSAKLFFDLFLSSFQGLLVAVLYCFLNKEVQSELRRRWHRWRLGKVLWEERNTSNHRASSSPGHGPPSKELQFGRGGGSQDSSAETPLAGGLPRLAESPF

GLP-1 receptor (Homo sapiens, UniProt P43220), sequence (P43220 24-463): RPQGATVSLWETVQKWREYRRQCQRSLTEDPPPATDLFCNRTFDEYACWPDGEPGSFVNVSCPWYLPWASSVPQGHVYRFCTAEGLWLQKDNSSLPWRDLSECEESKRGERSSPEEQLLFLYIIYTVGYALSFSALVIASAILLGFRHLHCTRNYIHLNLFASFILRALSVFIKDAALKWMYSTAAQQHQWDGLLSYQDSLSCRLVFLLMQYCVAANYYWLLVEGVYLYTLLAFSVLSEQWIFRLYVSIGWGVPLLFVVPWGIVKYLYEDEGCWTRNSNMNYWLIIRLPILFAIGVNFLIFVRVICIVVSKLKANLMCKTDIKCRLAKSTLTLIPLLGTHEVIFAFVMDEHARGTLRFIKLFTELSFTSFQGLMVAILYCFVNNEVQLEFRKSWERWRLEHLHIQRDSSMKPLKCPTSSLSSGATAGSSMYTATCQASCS

Molecule | Relative activity to GLP-1 standard, luciferase cAMP reporter assay, sample after 0 d in 20% human plasma at 37 C [2] [%] | Relative activity to GLP-1 standard, luciferase cAMP reporter assay, sample after 1 d in 20% human plasma at 37 C [2] [%] | Relative activity to GLP-1 standard, luciferase cAMP reporter assay, sample after 5 d in 20% human plasma at 37 C [2] [%] | GLP-1 EC50 [3] [nM] | Glucagon IC50 [4] [nM] | other results
C20 attached directly to position 10 (non-prodrug): non-prodrug: C20-acylated lysine attached directly to the 4-amino group of phenylalanine at position 10 of Peptide D (F[Aib]EGTFTSD[Phe(4-NH2)]([Lys-C20])SIYLDKQAA[Aib]EFVNWLLAGGPSSGAPPPS; not fully specified (C-terminus)) | – | – | – | – | – | Change of activity over the time points in plasma [1]: No change
C22 attached directly to position 10 (non-prodrug): non-prodrug: C22-acylated lysine attached directly to the 4-amino group of phenylalanine at position 10 of Peptide D (F[Aib]EGTFTSD[Phe(4-NH2)]([Lys-Docosanoyl])SIYLDKQAA[Aib]EFVNWLLAGGPSSGAPPPS; not fully specified (C-terminus)) | – | – | – | – | – | Change of activity over the time points in plasma [1]: No change
B1 | 85.2 | 84.1 | 72.8 | – | – | –
B2 | – | – | – | 151 | 10 to 30 | –
B3 | 1.8 | 2.1 | 0.4 | – | – | –
B4 | – | – | – | 289 | 22 | –
B5 | – | – | – | 0.28 | – | –
B6 | 3.4 | 0.7 | 0.2 | – | – | –
B7 | – | – | – | 239 | 74 | –
B8 | – | – | – | – | 63 | –
B9 | 30.9 | 48.2 | 63.2 | – | – | Restored (percent, 0 d; not defined in the filing, matches the ratio to the parent peptide at the same time) [2]: 36%; Restored (percent, 1 d; not defined in the filing, matches the ratio to the parent peptide at the same time) [2]: 57%; Restored (percent, 5 d; not defined in the filing, matches the ratio to the parent peptide at the same time) [2]: 87%
B10 | 30.9 | 37.8 | 96.9 | – | – | Restored (percent, 0 d; not defined in the filing, matches the ratio to the parent peptide at the same time) [2]: 36%; Restored (percent, 1 d; not defined in the filing, matches the ratio to the parent peptide at the same time) [2]: 45%; Restored (percent, 5 d; not defined in the filing, matches the ratio to the parent peptide at the same time) [2]: 133%
